# From US7589207B2, “Cyclohexyl compounds as CCR5 antagonists” (SmithKline Beecham Corporation, priority 2002, dated 2009)
# Biological target: T1, human CCR5 chemokine receptor (Homo sapiens, UniProt P51681)
# T1 construct: host or cells: Chinese Hamster Ovary (CHO) cells; membranes prepared from the cell pellet
# Test: CC-Chemokine Receptor-5 binding by Scintillation Proximity Assay (CCR5 SPA), displacement of 125I-MIP1α
# Conditions: standard compound, 14-point concentration-response curve in triplicate, starting concentration 1 μM
# Experimental: CC-Chemokine Receptor-5 Binding by Scintillation Proximity Assay (CCR5 SPA) Scintillation Proximity Assay for the Human CC-Chemokine Receptor, CCR-5
# This protocol describes a high-throughput screen using SPA binding to identify compounds that inhibit binding of ^125I-MIP1α to the human CCR5 chemokine receptor.
# Human CCR5 receptors were expressed in Chinese Hamster Ovary (CHO) cells, registration # 12025. Cells were grown in suspension and a 50 to 80 ml CCR5 cell pellet was prepared. […]
# The saturation curve binding experiment is performed by adding varying amounts of [^125I]MIP1α (0-8.5 nM to membranes and beads in concentrations chosen from the optimal protein/bead ratio. The data is analyzed using a non-linear curve-fitting program. The Kd and Bmax are derived from the curve. […]
# T1 sequence (P51681 whole entry): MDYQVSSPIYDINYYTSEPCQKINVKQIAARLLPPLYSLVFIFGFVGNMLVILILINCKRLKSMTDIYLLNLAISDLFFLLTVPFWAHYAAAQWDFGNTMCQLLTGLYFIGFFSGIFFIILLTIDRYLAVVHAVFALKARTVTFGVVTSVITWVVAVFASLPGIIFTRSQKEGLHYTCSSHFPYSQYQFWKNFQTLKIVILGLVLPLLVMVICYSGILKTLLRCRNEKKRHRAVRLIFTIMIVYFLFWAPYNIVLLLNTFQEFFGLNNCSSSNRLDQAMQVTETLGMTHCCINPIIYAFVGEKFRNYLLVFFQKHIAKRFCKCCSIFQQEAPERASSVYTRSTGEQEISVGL
substance,measurement,value
"MIP1α: natural chemokine ligand of CCR5, used as the standard compound in the CCR5 SPA binding assay",average historical pKi,7.6
